Measurements published in paper PMC5460842.

Target: FLAG-EGFR incorporated into nanolipoprotein particles (EGFR-NLP) (not stated ("mammalian")) (UniProt P00533)
Test: BLI; competition with biotinylated EGF on sensor, 100 nM EGFR-NLP; given as EC50

An IC50 of 5.87 nM was found for cetuximab in this work.
